Experimental data from the MegaScale stability set (Tsuboyama et al. 2023).

B1: HHH_rd2_0155 (parent)
chain: PPDDERKKAEKAARSGNEEKAREILERLGYSEDEARELAKRLR

Variants of: B1
Assay: folding stability dG (cDNA display proteolysis); higher = more stable
Details: PBS, room temperature
In the case of PPDDERKKAEKAARSGNEEKAREILEWLGYSEDEARELAKRLR [R27W], the “folding stability dG” value is reported as 1.44 kcal/mol. For PPDDERKKAEKAARSGNEEKAREILEYLGYSEDEARELAKRLR [R27Y], the “folding stability dG” value was 1.41 kcal/mol. With PPDDERKKAEKAARSGNEEKAREILETLGYSEDEARELAKRLR [R27T] the “folding stability dG” value was 1.47 kcal/mol. With PPDDERKKAEKAARSGNEEKAREILESLGYSEDEARELAKRLR [R27S] the “folding stability dG” value was 1.94 kcal/mol. With PPDDERKKAEKAARSGNEEKAREILEQLGYSEDEARELAKRLR [R27Q] the “folding stability dG” value was 1.89 kcal/mol. For PPDDERKKAEKAARSGNEEKAREILEVLGYSEDEARELAKRLR [R27V], the “folding stability dG” value was 1.01 kcal/mol. With PPDDERKKAEKAARSGNEEKAREILERLGYSENEARELAKRLR [D33N] the “folding stability dG” value was 1.79 kcal/mol. For PPDDERKKAEKAARSGNEEKAREILERLGYSELEARELAKRLR [D33L], the “folding stability dG” value was 1.85 kcal/mol. In the case of PPDDERKKAEKAARSGNEEKAREILERLGYSEREARELAKRLR [D33R], the “folding stability dG” value is reported as 1.79 kcal/mol. For PPDDERKKAEKAARSGNEEKAREILERLGYSEVEARELAKRLR [D33V], the “folding stability dG” value was 1.71 kcal/mol. With PPDDERKKAEKAARSGNEEKAREILERLGYSEAEARELAKRLR [D33A] the “folding stability dG” value was 2.25 kcal/mol. With PPDDERKKAEKAARSGNEEKAREILERLGYSESEARELAKRLR [D33S] the “folding stability dG” value was 2.13 kcal/mol. With PPDDERKKAEKAARSGNEEKAREILERLGYSEEEARELAKRLR [D33E] the “folding stability dG” value was 2.19 kcal/mol. In the case of PPDDERKKAEKAARSGNEEKAREILERLGYSEWEARELAKRLR [D33W], the “folding stability dG” value is reported as 1.83 kcal/mol. For PPDDERKKAEKAARSGNEEKAREILERLGYSEKEARELAKRLR [D33K], the “folding stability dG” value was 1.92 kcal/mol. For PPDDERKKAEKAARSGNEEKAREILERLGYSEGEARELAKRLR [D33G], the “folding stability dG” value was 1.59 kcal/mol. With PPDDERKKAEKAARSGNEEKAREILERLGYSEFEARELAKRLR [D33F] the “folding stability dG” value was 1.77 kcal/mol. For PPDDERKKAEKAARSGNEEKAREILERLGYSEMEARELAKRLR [D33M], the “folding stability dG” value was 1.8 kcal/mol. In the case of PPDDERKKAEKAARSGNEEKAREILERLGYSEPEARELAKRLR [D33P], the “folding stability dG” value is reported as 1.55 kcal/mol. With PPDDERKKAEKAARSGNEEKAREILERLGYSEIEARELAKRLR [D33I] the “folding stability dG” value was 1.87 kcal/mol. In the case of PPDDERKKAEKAARSGNEEKAREILERLGYSEQEARELAKRLR [D33Q], the “folding stability dG” value is reported as 2.09 kcal/mol. With PPDDERKKAEKAARSGNEEKAREILERLGYSEYEARELAKRLR [D33Y] the “folding stability dG” value was 1.91 kcal/mol. In the case of PPDDERKKAEKAARSGNEEKAREILERLGYSEHEARELAKRLR [D33H], the “folding stability dG” value is reported as 1.86 kcal/mol. In the case of PPDDERKKAEKAARSGNEEKAREILERLGYSETEARELAKRLR [D33T], the “folding stability dG” value is reported as 1.92 kcal/mol. In the case of PPDDERKKAEKAARSGNEEKAREILERLGYSEDCARELAKRLR [E34C], the “folding stability dG” value is reported as 1.92 kcal/mol. In the case of PPDDERKKAEKAARSGNEEKAREILERLGYSEDAARELAKRLR [E34A], the “folding stability dG” value is reported as 1.78 kcal/mol. For PPDDERKKAEKAARSGNEEKAREILERLGYSEDDARELAKRLR [E34D], the “folding stability dG” value was 1.87 kcal/mol. In the case of PPDDERKKAEKAARSGNEEKAREILERLGYMEDEARELAKRLR [S31M], the “folding stability dG” value is reported as 1.03 kcal/mol. In the case of PPDDERKKAEKAARSGNEEKAREILERLGYIEDEARELAKRLR [S31I], the “folding stability dG” value is reported as 0.504 kcal/mol. In the case of PPDDERKKAEKAARSGNEEKAREILERLGYEEDEARELAKRLR [S31E], the “folding stability dG” value is reported as 1.03 kcal/mol. For PPDDERKKAEKAARSGNEEKAREILERLGYHEDEARELAKRLR [S31H], the “folding stability dG” value was 1.02 kcal/mol. In the case of PPDDERKKAEKAARSGNEEKAREILERLGYLEDEARELAKRLR [S31L], the “folding stability dG” value is reported as 0.779 kcal/mol. In the case of PPDDERKKAEKAARSGNEEKAREILERLGYFEDEARELAKRLR [S31F], the “folding stability dG” value is reported as 0.694 kcal/mol. For PPDDERKKAEKAARSGNEEKAREILERLGYTEDEARELAKRLR [S31T], the “folding stability dG” value was 2.13 kcal/mol. With PPDDERKKAEKAARSGNEEKAREILERLGYGEDEARELAKRLR [S31G] the “folding stability dG” value was 1.44 kcal/mol. In the case of PPDDERKKAEKAARSGNEEKAREILERLGYDEDEARELAKRLR [S31D], the “folding stability dG” value is reported as 1.36 kcal/mol. In the case of PPDDERKKAEKAARSGNEEKAREILERLGYNEDEARELAKRLR [S31N], the “folding stability dG” value is reported as 1.66 kcal/mol. With PPDDERKKAEKAARSGNEEKAREILERLGYWEDEARELAKRLR [S31W] the “folding stability dG” value was 0.564 kcal/mol. For PPDDERKKAEKAARSGNEEKAREILERLGYAEDEARELAKRLR [S31A], the “folding stability dG” value was 1.28 kcal/mol. With PPDDERKKAEKAARSGNEEKAREILERLGYVEDEARELAKRLR [S31V] the “folding stability dG” value was 0.347 kcal/mol. In the case of PPDDERKKAEKAARSGNEEKAREILERLGYYEDEARELAKRLR [S31Y], the “folding stability dG” value is reported as 0.287 kcal/mol. For PPDDERKKAEKAARSGNEEKAREILERLGYREDEARELAKRLR [S31R], the “folding stability dG” value was 1.07 kcal/mol. With PPDDERKKAEKAARSGNEEKAREILERLGYPEDEARELAKRLR [S31P] the “folding stability dG” value was 1.46 kcal/mol. For PPDDERKKAEKAARSGNEEKAREILERLGYQEDEARELAKRLR [S31Q], the “folding stability dG” value was 1.2 kcal/mol. For PPDDERKKAEKAARSGNEEKAREILERLGYKEDEARELAKRLR [S31K], the “folding stability dG” value was 1.35 kcal/mol. With PPDDERKKAEKAARSGNEEKAREILERLRYSEDEARELAKRLR [G29R] the “folding stability dG” value was 0.281 kcal/mol. For PPDDERKKAEKAARSGNEEKAREILERLDYSEDEARELAKRLR [G29D], the “folding stability dG” value was 0.445 kcal/mol. With PPDDERKKAEKAARSGNEEKAREILERLQYSEDEARELAKRLR [G29Q] the “folding stability dG” value was 0.091 kcal/mol. With PPDDERKKAEKAARSGNEEKAREILERLWYSEDEARELAKRLR [G29W] the “folding stability dG” value was 0.361 kcal/mol. With PPDDERKKAEKAARSGNEEKAREILERLFYSEDEARELAKRLR [G29F] the “folding stability dG” value was 0.708 kcal/mol. With PPDDERKKAEKAARSGNEEKAREILERLTYSEDEARELAKRLR [G29T] the “folding stability dG” value was 0.143 kcal/mol. With PPDDERKKAEKAARSGNEEKAREILERLKYSEDEARELAKRLR [G29K] the “folding stability dG” value was 0.226 kcal/mol. With PPDDERKKAEKAARSGNEEKAREILERLVYSEDEARELAKRLR [G29V] the “folding stability dG” value was 0.455 kcal/mol. In the case of PPDDERKKAEKAARSGNEEKAREILERLSYSEDEARELAKRLR [G29S], the “folding stability dG” value is reported as 0.474 kcal/mol. For PPDDERKKAEKAARSGNEEKAREILERLEYSEDEARELAKRLR [G29E], the “folding stability dG” value was 0.491 kcal/mol. With PPDDERKKAEKAARSGNEEKAREILERLIYSEDEARELAKRLR [G29I] the “folding stability dG” value was 0.244 kcal/mol. With PPDDERKKAEKAARSGNEEKAREILERLNYSEDEARELAKRLR [G29N] the “folding stability dG” value was 0.552 kcal/mol. With PPDDERKKAEKAARSGNEEKAREILERLAYSEDEARELAKRLR [G29A] the “folding stability dG” value was 0.3 kcal/mol. With PPDDERKKAEKAARSGNEEKAREILERLMYSEDEARELAKRLR [G29M] the “folding stability dG” value was 0.484 kcal/mol.
